Results on one molecule are retold here after PMC7721647, “The Human RNA Helicase DDX21 Presents a Dimerization Interface Necessary for Helicase Activity” (iScience, 2020).

Residue numbers refer to the chain shown, from its start.

Assay in all cases: fluorescence polarization; 50 mM KCl; FP: 50 mM Tris pH 7.5, 50 mM KCl, 5 mM MgCl2, no ATP; Hill-slope fit; temperature not given in the material
One data set deals with T1, DDX21ΔN (human, UniProt Q9NR30 186-783).
T1 sequence: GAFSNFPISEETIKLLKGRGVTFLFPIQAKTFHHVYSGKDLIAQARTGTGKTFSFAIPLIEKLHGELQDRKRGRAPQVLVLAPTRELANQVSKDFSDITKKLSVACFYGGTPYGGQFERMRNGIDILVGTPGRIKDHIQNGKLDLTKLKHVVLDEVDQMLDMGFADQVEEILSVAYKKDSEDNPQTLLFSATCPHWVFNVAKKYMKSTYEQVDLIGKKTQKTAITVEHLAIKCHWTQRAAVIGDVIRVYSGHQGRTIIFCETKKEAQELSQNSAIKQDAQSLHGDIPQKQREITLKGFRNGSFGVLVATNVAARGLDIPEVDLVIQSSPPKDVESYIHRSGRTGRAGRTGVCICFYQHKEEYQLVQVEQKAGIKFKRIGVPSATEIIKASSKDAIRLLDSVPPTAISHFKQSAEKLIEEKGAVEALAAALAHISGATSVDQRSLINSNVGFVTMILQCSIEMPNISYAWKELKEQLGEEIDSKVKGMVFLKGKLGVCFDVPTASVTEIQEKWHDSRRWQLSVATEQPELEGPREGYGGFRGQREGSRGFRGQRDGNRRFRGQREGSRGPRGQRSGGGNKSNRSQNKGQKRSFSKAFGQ
The conditions noted are these: protein: recombinant; chain copies: 2; label: 5'-FAM; G4.

For a further data set, the target named is T2, DDX21Core (human, UniProt Q9NR30 186-564).
T2 sequence: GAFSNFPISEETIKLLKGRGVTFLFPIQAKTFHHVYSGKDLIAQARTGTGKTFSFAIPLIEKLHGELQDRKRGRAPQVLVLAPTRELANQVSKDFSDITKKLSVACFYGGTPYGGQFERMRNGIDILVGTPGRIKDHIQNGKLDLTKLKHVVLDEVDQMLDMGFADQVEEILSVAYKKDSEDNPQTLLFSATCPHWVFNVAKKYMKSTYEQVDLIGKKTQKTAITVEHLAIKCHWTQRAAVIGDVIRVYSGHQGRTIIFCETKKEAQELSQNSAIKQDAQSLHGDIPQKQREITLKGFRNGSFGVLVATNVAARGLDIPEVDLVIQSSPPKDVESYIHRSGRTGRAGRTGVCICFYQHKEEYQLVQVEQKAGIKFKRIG
The conditions noted are these: protein: recombinant; label: 5'-FAM; G4.

In the next data set the target is T3, DDX21Fl monomer (human, UniProt Q9NR30 1-783, L611R;A612R;A613R;A614R;L615R;A616R).
T3 sequence: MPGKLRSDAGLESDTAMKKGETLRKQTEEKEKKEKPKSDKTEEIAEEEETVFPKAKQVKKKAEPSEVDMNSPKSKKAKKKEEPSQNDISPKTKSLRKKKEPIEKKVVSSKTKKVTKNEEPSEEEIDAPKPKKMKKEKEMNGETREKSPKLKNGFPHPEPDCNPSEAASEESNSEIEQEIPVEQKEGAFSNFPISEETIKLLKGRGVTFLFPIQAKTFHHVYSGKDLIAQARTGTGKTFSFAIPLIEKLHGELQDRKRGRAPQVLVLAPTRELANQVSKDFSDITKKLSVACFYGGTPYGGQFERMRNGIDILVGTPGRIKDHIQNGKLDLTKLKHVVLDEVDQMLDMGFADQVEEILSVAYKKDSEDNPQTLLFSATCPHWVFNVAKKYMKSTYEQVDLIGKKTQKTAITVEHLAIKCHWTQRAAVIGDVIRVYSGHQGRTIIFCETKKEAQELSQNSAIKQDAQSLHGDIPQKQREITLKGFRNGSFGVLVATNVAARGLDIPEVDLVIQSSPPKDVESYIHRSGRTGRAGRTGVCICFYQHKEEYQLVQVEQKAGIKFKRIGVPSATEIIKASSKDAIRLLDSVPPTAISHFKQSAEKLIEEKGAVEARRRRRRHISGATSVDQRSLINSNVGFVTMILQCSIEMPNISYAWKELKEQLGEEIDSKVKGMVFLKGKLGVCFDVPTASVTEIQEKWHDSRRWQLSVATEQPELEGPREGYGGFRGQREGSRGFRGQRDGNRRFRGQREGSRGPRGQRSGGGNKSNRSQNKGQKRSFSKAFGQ
The conditions noted are these: protein: recombinant; label: 5'-FAM; G4.

The next data set has as its target T4, DDX21ΔN monomer (human, UniProt Q9NR30 186-783, L611R;A612R;A613R;A614R;L615R;A616R).
T4 sequence: T1 sequence with L426R, A427R, A428R, A429R, L430R, A431R
The conditions noted are these: protein: recombinant; label: 5'-FAM; G4.

B1: Q2 RNA G-quadruplex (structured_RNA)
RNA: GUUGGGGCGGGCGUUGGGUUUGGGGGGACG
One may read the Kd as the constant that tells how readily two partners part at equilibrium. For the molecule B1, the Kd with DDX21ΔN is 7.6 ± 0.5 nM; with DDX21Core it was 62.5 ± 4.9 nM; in the data set with DDX21Fl monomer, 9.8 ± 0.9 nM; in the data set with DDX21ΔN monomer, 2.9 ± 0.3 nM.
